Target: cytochrome b6f complex from Chlamydomonas reinhardtii (Chlamydomonas reinhardtii) (UniProt Q00471)
Test: crystal structure

## cytochrome b6f complex from Chlamydomonas reinhardtii (from UniProt Q00471 1-215; P49728 30-206; P23230 1-160; P23577 32-317)
  stoichiometry N: 2

— paper PMC3865438
